Target: T1, Abp1 SH3 (ABP1_YEAST), P15891
T1 chain: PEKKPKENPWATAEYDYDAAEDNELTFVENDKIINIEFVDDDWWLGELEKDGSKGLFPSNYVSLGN
Test: SPOT array

GSSPQPLPELIKP [YGR270W 682-694]
normalised SPOT signal, Boehringer light units (BLU); mean over the file's lines of this peptide: 55.9

GSTAVSFPSSGKP [YLR313C 322-334]
normalised SPOT signal, Boehringer light units (BLU); mean over the file's lines of this peptide: 108

GSVWSKTPPEIKP [YOL100W 451-463]
normalised SPOT signal, Boehringer light units (BLU); mean over the file's lines of this peptide: 87.2

GTFESKHVVIPFKP [YLR238W 83-96]
normalised SPOT signal, Boehringer light units (BLU); mean over the file's lines of this peptide: 83.5

GTKKIAGVQVPAKP [YPL107W 67-80]
normalised SPOT signal, Boehringer light units (BLU); mean over the file's lines of this peptide: 106

GTKSQESPLNKKP [YNL042W 210-222]
normalised SPOT signal, Boehringer light units (BLU); mean over the file's lines of this peptide: 58.6

GTSASHSPRPFRP [YLL029W 25-37]
normalised SPOT signal, Boehringer light units (BLU); mean over the file's lines of this peptide: 134

GVADPQNSLNPSKP [YOR363C 848-861]
normalised SPOT signal, Boehringer light units (BLU); mean over the file's lines of this peptide: 48.5

GVFMNWSPRFDRP [YLR023C 375-387]
normalised SPOT signal, Boehringer light units (BLU); mean over the file's lines of this peptide: 176

GVNLDPSVKIPAKP [YIR007W 25-38]
normalised SPOT signal, Boehringer light units (BLU); mean over the file's lines of this peptide: 112

GVNYVDYYPLPDKP [YGL137W 186-199]
normalised SPOT signal, Boehringer light units (BLU); mean over the file's lines of this peptide: 122

GVRNIMIPFPNRP [YOR093C 1314-1326]
normalised SPOT signal, Boehringer light units (BLU); mean over the file's lines of this peptide: 2310

GVVLRVMVLKPKKP [YNR036C 60-73]
normalised SPOT signal, Boehringer light units (BLU); mean over the file's lines of this peptide: 131

GWYLTGAPNILKP [YDL203C 543-555]
normalised SPOT signal, Boehringer light units (BLU); mean over the file's lines of this peptide: 102

GYDVKVTPWEKRP [Q0055 610-622]
normalised SPOT signal, Boehringer light units (BLU); mean over the file's lines of this peptide: 139

GYFFHDPKFIPNKP [YGR019W 332-345]
normalised SPOT signal, Boehringer light units (BLU); mean over the file's lines of this peptide: 174

GYRKAALKYHPDKP [YNL007C 25-38]
normalised SPOT signal, Boehringer light units (BLU); mean over the file's lines of this peptide: 172

HADSVADPRSSRP [YOL085C 38-50]
normalised SPOT signal, Boehringer light units (BLU); mean over the file's lines of this peptide: 107

HASLLVRDSKPSKP [YBR193C 182-195]
normalised SPOT signal, Boehringer light units (BLU); mean over the file's lines of this peptide: 91.3

HSYRQLAPTHHRP [YFL015C 82-94]
normalised SPOT signal, Boehringer light units (BLU); mean over the file's lines of this peptide: 703

HDKDVIVPNVWRP [YEL036C 221-233]
normalised SPOT signal, Boehringer light units (BLU); mean over the file's lines of this peptide: 123

HEESNNYVEIPKKP [YHR092C 51-64]
normalised SPOT signal, Boehringer light units (BLU); mean over the file's lines of this peptide: 137

HGLPRNADSQPARP [YIR013C 32-45]
normalised SPOT signal, Boehringer light units (BLU); mean over the file's lines of this peptide: 154

HGTLTFPSDYPYKP [YER100W 55-68]
normalised SPOT signal, Boehringer light units (BLU); mean over the file's lines of this peptide: 124

HHHHHNRGSTPTKP [YDL025C 257-270]
normalised SPOT signal, Boehringer light units (BLU); mean over the file's lines of this peptide: 257

HHNIDIDPLPRRP [YLR299W 81-93]
normalised SPOT signal, Boehringer light units (BLU); mean over the file's lines of this peptide: 55.3

HIGDMYGSVTPLRP [YHL002W 323-336]
normalised SPOT signal, Boehringer light units (BLU); mean over the file's lines of this peptide: 122

HITSHLRVHVPLKP [YHL027W 198-211]
normalised SPOT signal, Boehringer light units (BLU); mean over the file's lines of this peptide: 285

HKNFFSQPDINRP [YMR100W 263-275]
normalised SPOT signal, Boehringer light units (BLU); mean over the file's lines of this peptide: 85.4

HKSNVRQISNPKKP [YGL023C 320-333]
normalised SPOT signal, Boehringer light units (BLU); mean over the file's lines of this peptide: 98.3

HKVKERDPNMPKRP [YDL002C 84-97]
normalised SPOT signal, Boehringer light units (BLU); mean over the file's lines of this peptide: 156

HLFPPSSPVAGKP [YDR501W 3-15]
normalised SPOT signal, Boehringer light units (BLU); mean over the file's lines of this peptide: 69.7

HLIAPLAGAVPTKP [YLR153C 435-448]
normalised SPOT signal, Boehringer light units (BLU); mean over the file's lines of this peptide: 131

HLNNSDIHSQPNKP [YOR329C 803-816]
normalised SPOT signal, Boehringer light units (BLU); mean over the file's lines of this peptide: 87.4

HLSLTAVPSFLRP [YJR090C 735-747]
normalised SPOT signal, Boehringer light units (BLU); mean over the file's lines of this peptide: 62.7

HLYSMDPPLDRKP [YGL131C 343-355]
normalised SPOT signal, Boehringer light units (BLU); mean over the file's lines of this peptide: 172

HMTHNRKPAEPTKP [YML075C 1020-1033]
normalised SPOT signal, Boehringer light units (BLU); mean over the file's lines of this peptide: 2090

HNTSSSIPKISRP [YGR014W 1282-1294]
normalised SPOT signal, Boehringer light units (BLU); mean over the file's lines of this peptide: 765

HPEYTSKVLDPSKP [YBL039C 535-548]
normalised SPOT signal, Boehringer light units (BLU); mean over the file's lines of this peptide: 69.3

HPEYTSKVLEPSRP [YJR103W 537-550]
normalised SPOT signal, Boehringer light units (BLU); mean over the file's lines of this peptide: 91.6

HSAATALPALRRP [YLR162W 19-31]
normalised SPOT signal, Boehringer light units (BLU); mean over the file's lines of this peptide: 80.8

HSAIQSLSFHPSKP [YJL069C 248-261]
normalised SPOT signal, Boehringer light units (BLU); mean over the file's lines of this peptide: 194

HTDDLPEGIRPFKP [YLR090W 428-441]
normalised SPOT signal, Boehringer light units (BLU); mean over the file's lines of this peptide: 61

HTEQNNPPKPQKP [YOR290C 412-424]
normalised SPOT signal, Boehringer light units (BLU); mean over the file's lines of this peptide: 129

HTMTSPPPVFNKP [YDL195W 1091-1103]
normalised SPOT signal, Boehringer light units (BLU); mean over the file's lines of this peptide: 1200

HVDEDGEPIDIKP [YLR429W 120-132]
normalised SPOT signal, Boehringer light units (BLU); mean over the file's lines of this peptide: 202

HVNLDKGKHVPSKP [YKL054C 142-155]
normalised SPOT signal, Boehringer light units (BLU); mean over the file's lines of this peptide: 105

HVPIVKRNKYPPRP [YDR195W 518-531]
normalised SPOT signal, Boehringer light units (BLU); mean over the file's lines of this peptide: 267

HYAKNRTPGVMKP [YLR244C 308-320]
normalised SPOT signal, Boehringer light units (BLU); mean over the file's lines of this peptide: 419

HYDVDANIMPPPKP [YBR108W 510-523]
normalised SPOT signal, Boehringer light units (BLU); mean over the file's lines of this peptide: 108

HYPPGYDPTDPNRP [YER166W 1422-1435]
normalised SPOT signal, Boehringer light units (BLU); mean over the file's lines of this peptide: 176

IAHFNYLPPTIRP [YKR099W 624-636]
normalised SPOT signal, Boehringer light units (BLU); mean over the file's lines of this peptide: 197

IAIEREEDSIPSRP [YMR221C 251-264]
normalised SPOT signal, Boehringer light units (BLU); mean over the file's lines of this peptide: 99.1

IATSADYIFIPEKP [YMR205C 403-416]
normalised SPOT signal, Boehringer light units (BLU); mean over the file's lines of this peptide: 90.5

IAVGLDALNIPHKP [YHR033W 54-67]
normalised SPOT signal, Boehringer light units (BLU); mean over the file's lines of this peptide: 142

IAVISVLPNFKKP [YBL004W 947-959]
normalised SPOT signal, Boehringer light units (BLU); mean over the file's lines of this peptide: 29

IDFFLALFSDPARP [YHL005C 58-71]
normalised SPOT signal, Boehringer light units (BLU); mean over the file's lines of this peptide: 21.9

IDILGLAELAPGKP [YLR304C 721-734]
normalised SPOT signal, Boehringer light units (BLU); mean over the file's lines of this peptide: 124
